# Data reported in patent US20150064134A1.
# Legend:
# Test in all cases: cell-based or functional assay
# JNK3(h) (human) = JNK3(h) (human) (UniProt P53779)
# IR(h), activated (human) = IR(h), activated (human) (UniProt P06213)
# EphA8(h) (human) = biological target: T1, EphA8(h) (human) (UniProt P29322)
# T1 sequence (looked up): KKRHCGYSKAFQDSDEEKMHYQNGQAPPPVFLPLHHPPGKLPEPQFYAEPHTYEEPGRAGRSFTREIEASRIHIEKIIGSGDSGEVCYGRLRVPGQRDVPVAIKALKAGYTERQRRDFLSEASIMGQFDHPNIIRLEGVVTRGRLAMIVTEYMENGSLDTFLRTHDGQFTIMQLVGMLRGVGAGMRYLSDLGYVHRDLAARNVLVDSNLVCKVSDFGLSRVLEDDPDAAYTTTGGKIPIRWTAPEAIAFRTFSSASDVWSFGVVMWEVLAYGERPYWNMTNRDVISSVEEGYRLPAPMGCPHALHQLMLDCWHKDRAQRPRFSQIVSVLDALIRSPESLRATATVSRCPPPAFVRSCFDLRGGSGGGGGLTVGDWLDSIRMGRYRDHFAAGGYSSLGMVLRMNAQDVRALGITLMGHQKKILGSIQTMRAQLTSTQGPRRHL
# WNK2(h) (human) = WNK2(h) (human) (UniProt Q9Y3S1)
# EphB3(h) (human) = EphB3(h) (human) (UniProt P54753)
# Sequence of EphB3(h) (human) (P54753 581-998 limits assumed): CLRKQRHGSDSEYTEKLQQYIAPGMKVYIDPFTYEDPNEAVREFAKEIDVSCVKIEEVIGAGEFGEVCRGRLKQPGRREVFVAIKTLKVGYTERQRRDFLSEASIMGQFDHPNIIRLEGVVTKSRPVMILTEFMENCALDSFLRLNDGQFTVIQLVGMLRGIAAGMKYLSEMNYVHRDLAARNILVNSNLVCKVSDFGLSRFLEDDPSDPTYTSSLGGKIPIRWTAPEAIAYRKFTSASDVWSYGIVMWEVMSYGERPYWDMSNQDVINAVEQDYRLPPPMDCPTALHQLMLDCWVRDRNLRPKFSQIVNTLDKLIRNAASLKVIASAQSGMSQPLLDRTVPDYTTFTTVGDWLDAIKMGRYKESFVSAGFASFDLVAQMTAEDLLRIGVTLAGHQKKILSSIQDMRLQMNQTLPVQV
# SGK3(h) (human) = biological target: T2, SGK3(h) (human) (UniProt Q96BR1)
# T2 sequence (looked up): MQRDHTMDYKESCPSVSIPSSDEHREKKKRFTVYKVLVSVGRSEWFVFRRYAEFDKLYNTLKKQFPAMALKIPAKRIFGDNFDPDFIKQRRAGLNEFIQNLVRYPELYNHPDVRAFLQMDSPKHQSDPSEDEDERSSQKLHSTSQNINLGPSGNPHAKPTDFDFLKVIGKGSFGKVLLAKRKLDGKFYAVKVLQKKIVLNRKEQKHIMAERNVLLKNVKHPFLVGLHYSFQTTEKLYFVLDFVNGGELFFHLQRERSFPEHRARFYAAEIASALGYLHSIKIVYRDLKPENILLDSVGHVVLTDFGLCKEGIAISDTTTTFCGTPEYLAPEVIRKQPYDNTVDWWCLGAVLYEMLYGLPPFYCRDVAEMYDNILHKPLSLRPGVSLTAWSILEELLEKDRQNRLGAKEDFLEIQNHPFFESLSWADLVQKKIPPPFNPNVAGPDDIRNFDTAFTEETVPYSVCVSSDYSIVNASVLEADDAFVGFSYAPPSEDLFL
# MARK1(h) (human) = MARK1(h) (human) (UniProt Q9P0L2)
# Src(1-530)(h) (human) = Src(1-530)(h) (human) (UniProt P12931)
# ALK(h) (human) = ALK(h) (human) (UniProt Q9UM73)
# CaMKIV(h) (human) = CaMKIV(h) (human) (UniProt Q16566)
# Haspin(h) (human) = biological target: T3, Haspin(h) (human) (UniProt Q8TF76)
# T3 sequence (looked up): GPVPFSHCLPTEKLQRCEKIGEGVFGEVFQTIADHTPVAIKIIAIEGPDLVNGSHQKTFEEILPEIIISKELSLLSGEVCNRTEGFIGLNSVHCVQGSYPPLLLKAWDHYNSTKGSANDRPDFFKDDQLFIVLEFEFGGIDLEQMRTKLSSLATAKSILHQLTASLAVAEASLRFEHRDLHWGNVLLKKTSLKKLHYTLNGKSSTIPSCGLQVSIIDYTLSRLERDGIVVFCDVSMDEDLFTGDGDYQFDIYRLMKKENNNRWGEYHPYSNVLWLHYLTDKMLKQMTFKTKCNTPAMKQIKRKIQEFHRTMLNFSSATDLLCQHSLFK
# Fms(h) (human) = biological target: T4, Fms(h) (human) (UniProt P07333)
# T4 sequence (looked up): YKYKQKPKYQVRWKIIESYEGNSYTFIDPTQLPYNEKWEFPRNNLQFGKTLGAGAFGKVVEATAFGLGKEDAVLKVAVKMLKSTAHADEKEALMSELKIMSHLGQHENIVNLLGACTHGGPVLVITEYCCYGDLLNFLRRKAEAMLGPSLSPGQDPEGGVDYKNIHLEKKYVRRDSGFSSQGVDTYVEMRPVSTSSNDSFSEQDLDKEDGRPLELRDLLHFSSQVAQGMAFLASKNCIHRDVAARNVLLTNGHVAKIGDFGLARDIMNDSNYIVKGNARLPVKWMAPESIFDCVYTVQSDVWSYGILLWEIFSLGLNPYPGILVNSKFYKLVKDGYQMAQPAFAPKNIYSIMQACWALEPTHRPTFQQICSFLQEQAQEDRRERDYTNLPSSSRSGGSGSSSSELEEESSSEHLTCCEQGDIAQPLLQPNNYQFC
# Itk(h) (human) = biological target: T5, Itk(h) (human) (UniProt Q08881)
# T5 sequence (looked up): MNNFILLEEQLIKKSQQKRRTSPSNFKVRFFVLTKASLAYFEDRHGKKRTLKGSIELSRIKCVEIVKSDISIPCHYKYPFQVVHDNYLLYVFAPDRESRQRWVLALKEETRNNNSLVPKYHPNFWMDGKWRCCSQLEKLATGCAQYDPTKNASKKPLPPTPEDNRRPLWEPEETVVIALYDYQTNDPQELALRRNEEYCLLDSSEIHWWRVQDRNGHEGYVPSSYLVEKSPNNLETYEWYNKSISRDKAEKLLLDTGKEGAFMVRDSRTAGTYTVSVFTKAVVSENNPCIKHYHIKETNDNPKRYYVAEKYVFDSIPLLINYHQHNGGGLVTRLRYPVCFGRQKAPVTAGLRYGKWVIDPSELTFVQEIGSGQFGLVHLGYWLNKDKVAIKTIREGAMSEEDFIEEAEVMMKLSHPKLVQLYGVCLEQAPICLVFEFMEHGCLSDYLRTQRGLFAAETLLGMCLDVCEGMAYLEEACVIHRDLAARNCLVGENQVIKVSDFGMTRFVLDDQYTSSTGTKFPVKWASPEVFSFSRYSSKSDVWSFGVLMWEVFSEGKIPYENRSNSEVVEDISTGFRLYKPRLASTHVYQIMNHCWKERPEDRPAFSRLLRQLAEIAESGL
# cKit(D816V)(h) (human) = cKit(D816V)(h) (human) (UniProt P10721)
# Sequence of cKit(D816V)(h) (human) (P10721 544-976 D816V): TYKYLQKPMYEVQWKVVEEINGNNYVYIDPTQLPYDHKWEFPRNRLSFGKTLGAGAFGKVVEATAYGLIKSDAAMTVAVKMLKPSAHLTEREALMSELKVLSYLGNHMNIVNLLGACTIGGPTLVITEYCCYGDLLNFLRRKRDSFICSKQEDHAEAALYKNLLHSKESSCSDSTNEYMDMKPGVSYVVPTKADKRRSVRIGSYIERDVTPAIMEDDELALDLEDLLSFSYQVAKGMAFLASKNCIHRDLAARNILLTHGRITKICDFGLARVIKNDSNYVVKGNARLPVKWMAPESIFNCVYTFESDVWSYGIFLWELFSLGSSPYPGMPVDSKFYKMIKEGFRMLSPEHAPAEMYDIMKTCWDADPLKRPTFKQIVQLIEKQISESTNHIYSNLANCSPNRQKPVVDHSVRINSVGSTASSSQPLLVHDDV
# SAPK2b(h) (human) = SAPK2b(h) (human) (UniProt Q15759)
# Sequence of SAPK2b(h) (human) (Q15759 whole entry): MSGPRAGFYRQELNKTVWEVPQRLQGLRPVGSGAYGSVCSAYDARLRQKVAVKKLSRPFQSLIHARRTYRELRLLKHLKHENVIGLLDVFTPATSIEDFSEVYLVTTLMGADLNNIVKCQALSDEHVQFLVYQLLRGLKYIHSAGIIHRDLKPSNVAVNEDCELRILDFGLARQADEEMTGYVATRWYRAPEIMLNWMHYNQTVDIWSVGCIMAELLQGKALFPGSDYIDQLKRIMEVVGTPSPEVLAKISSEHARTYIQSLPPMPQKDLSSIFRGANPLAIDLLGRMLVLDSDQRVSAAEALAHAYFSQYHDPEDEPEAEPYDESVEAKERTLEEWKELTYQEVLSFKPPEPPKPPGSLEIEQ
# PDGFRβ(h) (human) = PDGFRβ(h) (human) (UniProt P09619)
# Sequence of PDGFRβ(h) (human) (P09619 557-1106 limits assumed): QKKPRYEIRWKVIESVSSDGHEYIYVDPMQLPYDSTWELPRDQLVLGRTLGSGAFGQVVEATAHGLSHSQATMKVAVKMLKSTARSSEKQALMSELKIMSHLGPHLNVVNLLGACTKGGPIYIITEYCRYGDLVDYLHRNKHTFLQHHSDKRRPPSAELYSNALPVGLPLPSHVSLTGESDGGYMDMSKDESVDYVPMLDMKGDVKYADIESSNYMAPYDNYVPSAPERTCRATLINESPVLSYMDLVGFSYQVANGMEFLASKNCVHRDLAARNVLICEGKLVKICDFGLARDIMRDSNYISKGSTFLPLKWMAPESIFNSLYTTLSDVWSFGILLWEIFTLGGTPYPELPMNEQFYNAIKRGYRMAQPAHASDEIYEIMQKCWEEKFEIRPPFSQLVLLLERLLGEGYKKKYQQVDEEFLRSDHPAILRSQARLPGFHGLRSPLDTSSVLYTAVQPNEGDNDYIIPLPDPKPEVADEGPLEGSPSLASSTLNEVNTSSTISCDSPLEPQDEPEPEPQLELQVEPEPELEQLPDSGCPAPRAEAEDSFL
# GSK3β(h) (human) = GSK3β(h) (human) (UniProt P49841)
# Sequence of IR(h), activated (human) (P06213 1005-1310 limits assumed): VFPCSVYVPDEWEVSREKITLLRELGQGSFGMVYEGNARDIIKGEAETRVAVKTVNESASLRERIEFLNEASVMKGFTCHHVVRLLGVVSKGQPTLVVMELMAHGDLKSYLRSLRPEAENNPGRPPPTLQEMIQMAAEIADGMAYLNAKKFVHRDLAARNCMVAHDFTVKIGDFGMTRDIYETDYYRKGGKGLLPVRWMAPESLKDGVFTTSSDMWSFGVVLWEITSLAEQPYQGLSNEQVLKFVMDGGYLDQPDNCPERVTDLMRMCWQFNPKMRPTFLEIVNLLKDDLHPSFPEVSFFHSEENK
% activity at 100 µM (JNK3(h) (human)) [%],"% activity at 100 µM (IR(h), activated (human)) [%]",% activity at 100 µM (EphA8(h) (human)) [%],% activity at 100 µM (WNK2(h) (human)) [%],% activity at 100 µM (EphB3(h) (human)) [%],% activity at 100 µM (SGK3(h) (human)) [%],% activity at 100 µM (MARK1(h) (human)) [%],% activity at 100 µM (Src(1-530)(h) (human)) [%],% activity at 100 µM (ALK(h) (human)) [%],% activity at 100 µM (CaMKIV(h) (human)) [%],% activity at 100 µM (Haspin(h) (human)) [%],% activity at 100 µM (Fms(h) (human)) [%],% activity at 100 µM (Itk(h) (human)) [%],% activity at 100 µM (cKit(D816V)(h) (human)) [%],% activity at 100 µM (SAPK2b(h) (human)) [%],% activity at 100 µM (PDGFRβ(h) (human)) [%],% activity at 100 µM (GSK3β(h) (human)) [%],Substance
89,79,93,64,62,10,132,23,19,17,48,45,77,60,81,81,205,MMI-0300 (peptide)
70,59,146,54,47,8,120,19,16,18,36,37,63,35,82,53,202,MMI-0400 (peptide)
171,90,337,8,79,-3,110,21,12,-1,25,14,7,30,42,40,238,MMI-0500 (peptide)
